Patent US11833164B2, “Methods of treating Fabry disease in patients having a mutation in the GLA gene” (Amicus Therapeutics, Inc., priority 2019, dated 2023)

Test system: mutant form of α-Gal A expressed in HEK-293 cells
Assay: HEK assay (GLP HEK / Migalastat Amenability Assay): α-Gal A activity in lysates of transiently transfected HEK-293 cells incubated with or without 10 μM migalastat
Assay type: cell-based, human
Conditions: for Absolute increase (% WT) / Relative increase: 10 μM migalastat versus baseline; for Baseline α-Gal A activity (% WT): absence of migalastat; for Baseline α-Gal A activity (% WT) / 10 μM migalastat α-Gal A activity (% WT): percentage of baseline wild-type α-Gal A activity; for Baseline α-Gal A activity (% WT) / Baseline α-Gal A activity / 10 μM migalastat α-Gal A activity / 10 μM migalastat α-Gal A activity (% WT): mean ± SEM; for Baseline α-Gal A activity / 10 μM migalastat α-Gal A activity: lysates of HEK-293 cells transiently transfected with the mutant form; for Baseline α-Gal A activity: incubated 5 days in absence of migalastat; for 10 μM migalastat α-Gal A activity: incubated 5 days with 10 μM migalastat; for 10 μM migalastat α-Gal A activity (% WT): with 10 μM migalastat, 5 days
Procedure, shortened: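 HEK-293 cells transiently transfected with mutant α-Gal A and incubated with or without 10 μM migalastat; lysate activity given as nmol free 4-MU released per mg protein per hour. Values are mean±SEM.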

Molecule | Absolute increase (% WT) | Relative increase | Baseline α-Gal A activity (% WT) | Baseline α-Gal A activity [nmol/mg/h] | 10 μM migalastat α-Gal A activity [nmol/mg/h] | 10 μM migalastat α-Gal A activity (% WT)
L286F (protein) MQLRNPELHLGCALALRFLALVSWDIPGARALDNGLARTPTMGWLHWERFMCNLDCQEEPDSCISEKLFMEMAELMVSEGWKDAGYEYLCIDDCWMAPQRDSEGRLQADPQRFPHGIRQLANYVHSKGLKLGIYADVGNKTCAGFPGSFGYYDIDAQTFADWGVDLLKFDGCYCDSLENLADGYKHMSLALNRTGRSIVYSCEWPLYMWPFQKPNYTEIRQYCNHWRNFADIDDSWKSIKSILDWTSFNQERIVDVAGPGGWNDPDMLVIGNFGLSWNQQVTQMAFWAIMAAPLFMSNDLRHISPQAKALLQDKDVIAINQDPLGKQGYQLRQGDNFEVWERPLSGLAWAVAMINRQEIGGPRSYTIAVASLGKGVACNPACFITQLLPVKRKLGFYEWTSRLRSHINPTGTVLLQLENTMQMSLKDLL | 23.2 | 1.4 | 64.5 ± 2.8 | 29390 ± 1225 | 39732 ± 2859 | 87.7 ± 7.3
A288G (protein) MQLRNPELHLGCALALRFLALVSWDIPGARALDNGLARTPTMGWLHWERFMCNLDCQEEPDSCISEKLFMEMAELMVSEGWKDAGYEYLCIDDCWMAPQRDSEGRLQADPQRFPHGIRQLANYVHSKGLKLGIYADVGNKTCAGFPGSFGYYDIDAQTFADWGVDLLKFDGCYCDSLENLADGYKHMSLALNRTGRSIVYSCEWPLYMWPFQKPNYTEIRQYCNHWRNFADIDDSWKSIKSILDWTSFNQERIVDVAGPGGWNDPDMLVIGNFGLSWNQQVTQMALWGIMAAPLFMSNDLRHISPQAKALLQDKDVIAINQDPLGKQGYQLRQGDNFEVWERPLSGLAWAVAMINRQEIGGPRSYTIAVASLGKGVACNPACFITQLLPVKRKLGFYEWTSRLRSHINPTGTVLLQLENTMQMSLKDLL | 19.9 | 1.4 | 56.8 ± 6.3 | 22208 ± 1755 | 30458 ± 2381 | 76.7 ± 7.4
L286H (protein) MQLRNPELHLGCALALRFLALVSWDIPGARALDNGLARTPTMGWLHWERFMCNLDCQEEPDSCISEKLFMEMAELMVSEGWKDAGYEYLCIDDCWMAPQRDSEGRLQADPQRFPHGIRQLANYVHSKGLKLGIYADVGNKTCAGFPGSFGYYDIDAQTFADWGVDLLKFDGCYCDSLENLADGYKHMSLALNRTGRSIVYSCEWPLYMWPFQKPNYTEIRQYCNHWRNFADIDDSWKSIKSILDWTSFNQERIVDVAGPGGWNDPDMLVIGNFGLSWNQQVTQMAHWAIMAAPLFMSNDLRHISPQAKALLQDKDVIAINQDPLGKQGYQLRQGDNFEVWERPLSGLAWAVAMINRQEIGGPRSYTIAVASLGKGVACNPACFITQLLPVKRKLGFYEWTSRLRSHINPTGTVLLQLENTMQMSLKDLL | 15.4 | 22.2 | 0.8 ± 0.1 | 359 ± 52 | 7960 ± 1511 | 16.2 ± 2.5
L286V (protein) MQLRNPELHLGCALALRFLALVSWDIPGARALDNGLARTPTMGWLHWERFMCNLDCQEEPDSCISEKLFMEMAELMVSEGWKDAGYEYLCIDDCWMAPQRDSEGRLQADPQRFPHGIRQLANYVHSKGLKLGIYADVGNKTCAGFPGSFGYYDIDAQTFADWGVDLLKFDGCYCDSLENLADGYKHMSLALNRTGRSIVYSCEWPLYMWPFQKPNYTEIRQYCNHWRNFADIDDSWKSIKSILDWTSFNQERIVDVAGPGGWNDPDMLVIGNFGLSWNQQVTQMAVWAIMAAPLFMSNDLRHISPQAKALLQDKDVIAINQDPLGKQGYQLRQGDNFEVWERPLSGLAWAVAMINRQEIGGPRSYTIAVASLGKGVACNPACFITQLLPVKRKLGFYEWTSRLRSHINPTGTVLLQLENTMQMSLKDLL | 32.9 | 1.4 | 66 ± 5.1 | 28713 ± 3734 | 41335 ± 3422 | 98.9 ± 4.3
I289T (protein) MQLRNPELHLGCALALRFLALVSWDIPGARALDNGLARTPTMGWLHWERFMCNLDCQEEPDSCISEKLFMEMAELMVSEGWKDAGYEYLCIDDCWMAPQRDSEGRLQADPQRFPHGIRQLANYVHSKGLKLGIYADVGNKTCAGFPGSFGYYDIDAQTFADWGVDLLKFDGCYCDSLENLADGYKHMSLALNRTGRSIVYSCEWPLYMWPFQKPNYTEIRQYCNHWRNFADIDDSWKSIKSILDWTSFNQERIVDVAGPGGWNDPDMLVIGNFGLSWNQQVTQMALWATMAAPLFMSNDLRHISPQAKALLQDKDVIAINQDPLGKQGYQLRQGDNFEVWERPLSGLAWAVAMINRQEIGGPRSYTIAVASLGKGVACNPACFITQLLPVKRKLGFYEWTSRLRSHINPTGTVLLQLENTMQMSLKDLL | 36.7 | 2.0 | 38.6 ± 4.8 | 15033 ± 1450 | 29673 ± 2480 | 75.3 ± 7.9
I289V (protein) MQLRNPELHLGCALALRFLALVSWDIPGARALDNGLARTPTMGWLHWERFMCNLDCQEEPDSCISEKLFMEMAELMVSEGWKDAGYEYLCIDDCWMAPQRDSEGRLQADPQRFPHGIRQLANYVHSKGLKLGIYADVGNKTCAGFPGSFGYYDIDAQTFADWGVDLLKFDGCYCDSLENLADGYKHMSLALNRTGRSIVYSCEWPLYMWPFQKPNYTEIRQYCNHWRNFADIDDSWKSIKSILDWTSFNQERIVDVAGPGGWNDPDMLVIGNFGLSWNQQVTQMALWAVMAAPLFMSNDLRHISPQAKALLQDKDVIAINQDPLGKQGYQLRQGDNFEVWERPLSGLAWAVAMINRQEIGGPRSYTIAVASLGKGVACNPACFITQLLPVKRKLGFYEWTSRLRSHINPTGTVLLQLENTMQMSLKDLL | 13.6 | 1.2 | 61.2 ± 3.2 | 25845 ± 1706 | 31489 ± 1397 | 74.8 ± 2.7
A288V (protein) MQLRNPELHLGCALALRFLALVSWDIPGARALDNGLARTPTMGWLHWERFMCNLDCQEEPDSCISEKLFMEMAELMVSEGWKDAGYEYLCIDDCWMAPQRDSEGRLQADPQRFPHGIRQLANYVHSKGLKLGIYADVGNKTCAGFPGSFGYYDIDAQTFADWGVDLLKFDGCYCDSLENLADGYKHMSLALNRTGRSIVYSCEWPLYMWPFQKPNYTEIRQYCNHWRNFADIDDSWKSIKSILDWTSFNQERIVDVAGPGGWNDPDMLVIGNFGLSWNQQVTQMALWVIMAAPLFMSNDLRHISPQAKALLQDKDVIAINQDPLGKQGYQLRQGDNFEVWERPLSGLAWAVAMINRQEIGGPRSYTIAVASLGKGVACNPACFITQLLPVKRKLGFYEWTSRLRSHINPTGTVLLQLENTMQMSLKDLL | 31.7 | 1.4 | 82.5 ± 9 | 32777 ± 3168 | 45501 ± 4634 | 114.2 ± 12.4
I289L (protein) MQLRNPELHLGCALALRFLALVSWDIPGARALDNGLARTPTMGWLHWERFMCNLDCQEEPDSCISEKLFMEMAELMVSEGWKDAGYEYLCIDDCWMAPQRDSEGRLQADPQRFPHGIRQLANYVHSKGLKLGIYADVGNKTCAGFPGSFGYYDIDAQTFADWGVDLLKFDGCYCDSLENLADGYKHMSLALNRTGRSIVYSCEWPLYMWPFQKPNYTEIRQYCNHWRNFADIDDSWKSIKSILDWTSFNQERIVDVAGPGGWNDPDMLVIGNFGLSWNQQVTQMALWALMAAPLFMSNDLRHISPQAKALLQDKDVIAINQDPLGKQGYQLRQGDNFEVWERPLSGLAWAVAMINRQEIGGPRSYTIAVASLGKGVACNPACFITQLLPVKRKLGFYEWTSRLRSHINPTGTVLLQLENTMQMSLKDLL | 27.5 | 1.3 | 96.9 ± 10.5 | 37941 ± 3208 | 49640 ± 3368 | 124.4 ± 11.3
A288S (protein) MQLRNPELHLGCALALRFLALVSWDIPGARALDNGLARTPTMGWLHWERFMCNLDCQEEPDSCISEKLFMEMAELMVSEGWKDAGYEYLCIDDCWMAPQRDSEGRLQADPQRFPHGIRQLANYVHSKGLKLGIYADVGNKTCAGFPGSFGYYDIDAQTFADWGVDLLKFDGCYCDSLENLADGYKHMSLALNRTGRSIVYSCEWPLYMWPFQKPNYTEIRQYCNHWRNFADIDDSWKSIKSILDWTSFNQERIVDVAGPGGWNDPDMLVIGNFGLSWNQQVTQMALWSIMAAPLFMSNDLRHISPQAKALLQDKDVIAINQDPLGKQGYQLRQGDNFEVWERPLSGLAWAVAMINRQEIGGPRSYTIAVASLGKGVACNPACFITQLLPVKRKLGFYEWTSRLRSHINPTGTVLLQLENTMQMSLKDLL | 25.8 | 1.2 | 114.6 ± 10.6 | 45790 ± 3395 | 55988 ± 2609 | 140.4 ± 10.5
